The values that follow come from patent US20240158497A1 (published 2024).

As a reminder, the Kd is a measure of binding affinity in units of concentration. Lower therefore signals higher affinity. A word on the koff: it is a measure of how fast the partners let go of each other. Low readings indicate a long-lived complex, high ones a short-lived complex. As a reminder, the kon is the rate constant with which the complex forms. The low end stands for slower complex formation, the high end for faster complex formation. A word on the t½: it is how long it takes for the measured level to halve.

T1: human GP130 extracellular domain expressed with a C-terminal mouse IgG2a Fc tag (hGP130-mFc) (human)
T1 construct: also called dimeric human GP130
T1 chain: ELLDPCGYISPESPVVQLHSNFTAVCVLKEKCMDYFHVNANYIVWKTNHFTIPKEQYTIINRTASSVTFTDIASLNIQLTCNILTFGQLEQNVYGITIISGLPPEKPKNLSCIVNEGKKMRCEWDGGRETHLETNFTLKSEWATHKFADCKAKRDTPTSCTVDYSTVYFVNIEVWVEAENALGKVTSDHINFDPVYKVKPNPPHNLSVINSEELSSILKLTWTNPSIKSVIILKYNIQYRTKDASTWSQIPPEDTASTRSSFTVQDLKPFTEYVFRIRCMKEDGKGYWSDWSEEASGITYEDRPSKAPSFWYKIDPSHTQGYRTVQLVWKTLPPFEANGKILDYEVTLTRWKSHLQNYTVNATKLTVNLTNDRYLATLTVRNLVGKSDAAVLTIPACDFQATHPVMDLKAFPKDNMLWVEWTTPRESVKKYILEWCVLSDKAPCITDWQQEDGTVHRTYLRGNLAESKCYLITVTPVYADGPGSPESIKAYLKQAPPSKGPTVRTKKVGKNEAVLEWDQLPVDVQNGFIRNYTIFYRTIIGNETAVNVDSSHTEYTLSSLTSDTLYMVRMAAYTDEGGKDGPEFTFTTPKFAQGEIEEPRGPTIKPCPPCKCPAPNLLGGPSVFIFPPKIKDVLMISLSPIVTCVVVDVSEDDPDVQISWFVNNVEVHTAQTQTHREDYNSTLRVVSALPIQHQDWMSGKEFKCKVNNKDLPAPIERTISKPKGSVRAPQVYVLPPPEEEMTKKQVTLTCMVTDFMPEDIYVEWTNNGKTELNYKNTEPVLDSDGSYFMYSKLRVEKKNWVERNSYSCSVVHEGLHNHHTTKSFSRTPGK

B1: MAb16683 (antibody, V domains shown)
VH: QVQLVESGGGLVKPGGSLRLSCAASGFTFSDYYMTWIRQTPGKGLDWVSYISSSGTNKYNADSVKGRFTISRDNAKNSLYLQMNSLRAEDTAVYYCVRDPPWGMDVWGQGTTVTVSS
VL: not shown
B2: MAb16680 (antibody, V domains shown)
VH: QVQLQQSGPGQMKSSQTLTLTCAISGDSVSSNSAIWYWIRQSPSRGLEWLGRTKFRSKWYNDFALSMKSRITINPDTSKNQFSLHLNSVTPEDTAVYYCARYKWELYFDYWGQGTLVTVSS
VL: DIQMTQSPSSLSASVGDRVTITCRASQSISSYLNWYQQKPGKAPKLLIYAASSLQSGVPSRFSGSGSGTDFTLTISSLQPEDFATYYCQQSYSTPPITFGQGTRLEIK
B3: MAb16682 (antibody, V domains shown)
VH: EVQLVESGGGLVQPGGSLRLSCAASGFTFSTYWMNWVRQAPGKGLEWVANIKEDGSEKYYVDSVKGRFTISRDNAKNSLYLQMNSLRAEDTAVYYCAREGFGVVTYIWGQGTMVTVSS
VL: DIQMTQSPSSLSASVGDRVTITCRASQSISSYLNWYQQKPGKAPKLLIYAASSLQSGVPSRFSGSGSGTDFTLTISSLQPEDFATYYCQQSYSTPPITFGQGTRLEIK
notes: captured through anti-human Fc
B4: MAb16673 (antibody, V domains shown)
VH: EVQLVQSGAEVKKPGESLKISCKGSGYSFTSYWIDWVRQMPGKGLEWMGIIYPDDSDTRYSPSFQGQVTMSVDKSISTAYLQWSSLKASDTAIYYCARHERGIVEAGTDYYYYYGMDVWGQGTTVTVSS
VL: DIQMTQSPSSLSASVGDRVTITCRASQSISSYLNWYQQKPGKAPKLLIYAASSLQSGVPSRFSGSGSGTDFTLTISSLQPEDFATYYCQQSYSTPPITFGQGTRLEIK
notes: as for B3
B5: MAb16683 (antibody, V domains shown)
VH: B1 VH
VL: not shown
notes: as for B3
B6: MAb16669 (antibody, V domains shown)
VH: EVQLVESGGGLVQPGGSLRLSCAASGFTFSSYAMNWVRQAPGKGLEWVSAISGSGDSTYYTDSVKGRFTISRDNSKNTLYLQMNTLRAEDTAVYYCAKEEIVMLVGATPGWFDPWGQGTLVTVSS
VL: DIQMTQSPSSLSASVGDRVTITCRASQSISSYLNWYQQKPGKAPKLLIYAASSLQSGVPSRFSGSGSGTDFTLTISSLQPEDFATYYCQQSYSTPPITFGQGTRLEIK
notes: as for B3
B7: MAb16666 (antibody, V domains shown)
VH: EVQLVESGGGLVQSGGSLRLSCAASGFTFSRYEMNWVRQAPGKGLEWVAYISNTGTTRDYSDSVKGRFTISRDNAKNSLYLQMSSLRVEDTAVYYCVREKFSGTSDWFDPWGQGTLVTVSS
VL: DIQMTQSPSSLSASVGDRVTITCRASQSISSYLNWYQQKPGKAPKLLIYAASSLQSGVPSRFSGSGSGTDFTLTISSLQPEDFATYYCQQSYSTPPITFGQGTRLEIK
notes: as for B3
B8: MAb16676 (antibody, V domains shown)
VH: QVQLVQSGAEVMKPGASVKVSCRASGYTFSSYDINWVRQAPGQGLEWMGWISTATGNTNYPQKVQGRVTMTTDTSTNTAYMELRSLRSDDTAVYYCTREGNSKGWLDPWGQGTLVTVSS
VL: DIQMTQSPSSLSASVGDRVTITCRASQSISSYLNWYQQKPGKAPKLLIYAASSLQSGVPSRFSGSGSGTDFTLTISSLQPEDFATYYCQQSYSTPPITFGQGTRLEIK
notes: as for B3

T5 sequence (P40190 other isoform, or with tags, fused parts or gaps): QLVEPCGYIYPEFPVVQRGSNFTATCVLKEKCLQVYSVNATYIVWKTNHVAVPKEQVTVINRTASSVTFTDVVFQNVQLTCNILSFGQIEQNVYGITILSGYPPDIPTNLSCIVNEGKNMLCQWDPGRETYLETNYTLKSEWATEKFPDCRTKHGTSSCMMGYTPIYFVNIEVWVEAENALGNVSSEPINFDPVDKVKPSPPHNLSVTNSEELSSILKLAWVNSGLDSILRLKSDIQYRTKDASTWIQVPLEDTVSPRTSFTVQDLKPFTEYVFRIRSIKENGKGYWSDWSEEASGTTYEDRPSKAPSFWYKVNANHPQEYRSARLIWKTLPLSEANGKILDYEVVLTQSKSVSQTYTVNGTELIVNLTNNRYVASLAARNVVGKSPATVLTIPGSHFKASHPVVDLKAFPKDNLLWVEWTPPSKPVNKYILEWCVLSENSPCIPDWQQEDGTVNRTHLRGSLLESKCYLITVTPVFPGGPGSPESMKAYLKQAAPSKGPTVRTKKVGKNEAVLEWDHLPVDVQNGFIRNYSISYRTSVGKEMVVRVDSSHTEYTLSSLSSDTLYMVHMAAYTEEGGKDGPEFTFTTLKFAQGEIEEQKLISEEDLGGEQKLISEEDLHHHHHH

The target in the first assay is T2, mouse GP130 extracellular domain expressed with a C-terminal myc-myc-hexahistidine tag (mouse, UniProt Q00560 23-617).
T2 construct: monomeric; also called mGP130-mmH; mGP130-MMH
T2 sequence (Q00560 other isoform, or with tags, fused parts or gaps): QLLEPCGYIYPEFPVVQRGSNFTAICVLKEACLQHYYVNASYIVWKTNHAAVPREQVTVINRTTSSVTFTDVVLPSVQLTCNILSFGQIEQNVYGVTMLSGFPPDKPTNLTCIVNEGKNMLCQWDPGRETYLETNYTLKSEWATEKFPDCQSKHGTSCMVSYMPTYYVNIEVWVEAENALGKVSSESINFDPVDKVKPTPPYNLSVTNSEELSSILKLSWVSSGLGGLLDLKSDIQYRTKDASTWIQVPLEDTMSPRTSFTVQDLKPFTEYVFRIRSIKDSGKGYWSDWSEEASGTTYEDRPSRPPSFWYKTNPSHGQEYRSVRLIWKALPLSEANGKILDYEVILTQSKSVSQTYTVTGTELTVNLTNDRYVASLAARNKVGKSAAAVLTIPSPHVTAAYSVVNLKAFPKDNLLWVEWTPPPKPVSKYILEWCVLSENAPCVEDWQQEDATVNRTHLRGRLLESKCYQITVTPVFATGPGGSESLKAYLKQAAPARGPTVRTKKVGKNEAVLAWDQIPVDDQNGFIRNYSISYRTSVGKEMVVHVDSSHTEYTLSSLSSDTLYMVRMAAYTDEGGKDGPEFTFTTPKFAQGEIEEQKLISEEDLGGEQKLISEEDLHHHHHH
The assay can be described thus: SPR. The protocol:
(§1) Equilibrium dissociation constant (KD) for different GP130 reagents binding to purified anti-GP130 monoclonal antibodies were determined using a real-time surface plasmon resonance based Biacore 4000 biosensor. All binding studies were performed in 10 mM HEPES, 150 mM NaCl, 3 mM EDTA, and 0.05% v/v Surfactant Tween-20, pH 7.4 (HBS-ET) running buffer at 25° C. and 37° C. The Biacore sensor surface was first derivatized by amine coupling with a monoclonal mouse anti-human Fc antibody (GE, #BR-1008-39) to capture anti-GP130 monoclonal antibodies. […] Reagents tagged with “mmH” are monomeric, whereas reagents tagged with “mFc” are dimeric. Thus, for example, “hGP130-mmH” is also referred to as “monomeric human GP130,” and “hGP130-mFc” is also referred to as “dimeric human GP130.”
(§2) The association rate (k a) and dissociation rate (kd) were determined by fitting the real-time binding sensorgrams to a 1:1 binding model with mass transport limitation using Scrubber 2.0c curve-fitting software. Binding dissociation equilibrium constant (KD) and dissociative half-life (t ½) were calculated from the kinetic rates as: […]
(In general: SPR reads the build-up and loss of mass on a sensor chip optically.)
For the molecule B1, the binding result is on record as “no binding (tested: 100 nM)”.
The same measure, in the same setting: the value for B2 was “no binding (tested: 100 nM)”.

The target in the next assay is T3, human GP130 extracellular domain expressed with a C-terminal myc-myc-hexahistidine tag (human, UniProt P40189 23-619).
T3 construct: monomeric; also called hGP130-mmH; hGP130-MMH
The assay can be described thus: SPR 25C, mAb captured, hGP130-MMH injected. As for the experimental part: as §1, §2
Turning to B1, the “100 nM Ag Bound (RU)” value is 54 RU, the Kd was 46.7 nM, the dissociation rate constant (koff) turned out to be 0.00325 s⁻¹ and the association rate constant (kon) stood at 69700 M⁻¹ s⁻¹. Besides, the t½ is 4 min.

Another assay concerns the target T1, human GP130 extracellular domain …. The assay can be described thus: SPR Biacore, mAb captured via anti-hFc, 25 C. An outline of the steps: (§3)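 Anti-GP130 mAbs were captured on an amine-coupled mouse anti-human Fc surface and GP130 reagents flowed over in HBS-ET (pH 7.4) at 25 °C or 37 °C. mmH-tagged reagents are monomeric, mFc-tagged dimeric. ka and kd came from 1:1 fits with mass transport limitation; KD and t½ were calculated from these rates.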
In the case of B3, the “100 nM Ag Bound (RU)” value worked out at 126 RU, binding was characterised by a dissociation constant (Kd) of 2.1 nM, the koff amounted to 0.000361 s⁻¹ and the kon amounted to 172000 M⁻¹ s⁻¹. This molecule also showed a t½ of 32 min.
The matching figures for B4: 169 RU, 0.173 nM, 9.66e-05 s⁻¹, 560000 M⁻¹ s⁻¹ and 120 min.
The matching figures for B5: 107 RU, 1.86 nM, 0.000311 s⁻¹, 167000 M⁻¹ s⁻¹ and 37 min.
Turning to B6, the “100 nM Ag Bound (RU)” value was 40 RU, the Kd was 8.21 nM, the koff stood at 0.000241 s⁻¹ and the kon came out at 29300 M⁻¹ s⁻¹. This molecule had a t½ of 48 min.
The matching figures for B7: 253 RU, 0.12 nM, 0.000137 s⁻¹, 1.14e+06 M⁻¹ s⁻¹ and 85 min.
With B8, the “100 nM Ag Bound (RU)” value worked out at 119 RU; the affinity, expressed as Kd, was 0.0836 nM; the koff was 7.13e-05 s⁻¹; the kon came to 853000 M⁻¹ s⁻¹. Moreover, the t½ is 162 min.

In the next assay the target is T4, mouse GP130 extracellular domain expressed with a C-terminal myc-myc-hexahistidine tag (mGP130-mmH) (mouse, UniProt Q00560 23-617).
T4 construct: Monomeric; the entry includes the myc-myc-His tag
T4 sequence (Q00560 other isoform, or with tags, fused parts or gaps): as above
Description: SPR Biacore, mAb captured via anti-hFc, 25 C. An outline of the steps: as §3
With B3, the “100 nM Ag Bound (RU)” value amounted to 1 RU.
For the molecule B4, the “100 nM Ag Bound (RU)” value stood at 0 RU.
The same measure, in the same setting: for B5 the value was 0 RU; for B6, 0 RU; for B7, 1 RU.
Same read-out and setting: for B8 the value was 0 RU.

A further assay concerns the target T5, rat GP130 extracellular domain expressed with a C-terminal myc-myc-hexahistidine tag (rGP130-mmH) (rat, UniProt P40190 23-618).
T5 construct: Monomeric; the entry includes the myc-myc-His tag
The assay can be described thus: SPR Biacore, mAb captured via anti-hFc, 25 C. An outline of the steps: as §3
Consider B3, for which the “100 nM Ag Bound (RU)” value turned out to be 0 RU and the binding result was “no binding (tested: 100 nM)”.
The matching figures for B4: 0 RU and “no binding (tested: 100 nM)”.
On the same counts, the results for B5 are 0 RU and “no binding (tested: 100 nM)”.
With B6, the “100 nM Ag Bound (RU)” value was -2 RU.
On to B7, for which the “100 nM Ag Bound (RU)” value stood at 1 RU and the binding result was “no binding (tested: 100 nM)”.
The matching figures for B8: 0 RU and “no binding (tested: 100 nM)”.

Another assay has as its target T1, human GP130 extracellular domain …. Description: SPR Biacore, mAb captured via anti-hFc, 37 C. An outline of the steps:
as §3
For the molecule B3, the “100 nM Ag Bound (RU)” value came to 130 RU, the Kd came to 8.33 nM, the koff stood at 0.00196 s⁻¹ and the kon is 236000 M⁻¹ s⁻¹. The molecule also displayed a t½ of 6 min.
On the same counts, the results for B4 are 199 RU, 0.457 nM, 0.000313 s⁻¹, 684000 M⁻¹ s⁻¹ and 37 min.
The matching figures for B5: 111 RU, 5.8 nM, 0.00114 s⁻¹, 196000 M⁻¹ s⁻¹ and 10 min.
Turning to B6, the “100 nM Ag Bound (RU)” value worked out at 59 RU, the Kd was 5.85 nM, the koff worked out at 0.00038 s⁻¹ and the on-rate constant (kon) came to 65100 M⁻¹ s⁻¹. Also, the t½ came out at 30 min.
The matching figures for B7: 285 RU, 0.298 nM, 0.00036 s⁻¹, 1.21e+06 M⁻¹ s⁻¹ and 32 min.
The matching figures for B8: 140 RU, 0.0566 nM, 9.45e-05 s⁻¹, 1.67e+06 M⁻¹ s⁻¹ and 122 min.

The target of the next assay is T4, mouse GP130 extracellular domain …. The assay can be described thus: SPR Biacore, mAb captured via anti-hFc, 37 C. An outline of the steps: as §3
Regarding B3, the “100 nM Ag Bound (RU)” value is 0 RU and the binding result is listed as “no binding (tested: 100 nM)”.
The matching figures for B4: 1 RU and “no binding (tested: 100 nM)”.
The matching figures for B5: 0 RU and “no binding (tested: 100 nM)”.
For B6, the “100 nM Ag Bound (RU)” value was -1 RU.
In the case of B7, the “100 nM Ag Bound (RU)” value stood at 0 RU and the binding result is listed as “no binding (tested: 100 nM)”.
The matching figures for B8: 0 RU and “no binding (tested: 100 nM)”.

A further assay concerns the target T5, rat GP130 extracellular domain …. Description: SPR Biacore, mAb captured via anti-hFc, 37 C. An outline of the steps: as §3
Take B3: the “100 nM Ag Bound (RU)” value was 1 RU.
Same read-out and setting: the value for B4 was 2 RU; that for B5 was 0 RU; that for B6 was -2 RU.
Still for that read-out and setting: for B7 the value was 1 RU; for B8, 0 RU.
